Earlier results on three substances are cited in publication PMC4472561 (The FEBS journal, 2015).

pKd: −log10 of the molar value.

The subject of series [1] is CD8^+ cytotoxic effector memory T cells. The settings on record: in words; ref [25].
Series [2] deals with neural progenitor cells. The settings on record: in words; ref [24].
In series [3] the target is Kv1.1 (UniProt Q09470).
UniProt Q09470, sequence (Q09470 whole entry): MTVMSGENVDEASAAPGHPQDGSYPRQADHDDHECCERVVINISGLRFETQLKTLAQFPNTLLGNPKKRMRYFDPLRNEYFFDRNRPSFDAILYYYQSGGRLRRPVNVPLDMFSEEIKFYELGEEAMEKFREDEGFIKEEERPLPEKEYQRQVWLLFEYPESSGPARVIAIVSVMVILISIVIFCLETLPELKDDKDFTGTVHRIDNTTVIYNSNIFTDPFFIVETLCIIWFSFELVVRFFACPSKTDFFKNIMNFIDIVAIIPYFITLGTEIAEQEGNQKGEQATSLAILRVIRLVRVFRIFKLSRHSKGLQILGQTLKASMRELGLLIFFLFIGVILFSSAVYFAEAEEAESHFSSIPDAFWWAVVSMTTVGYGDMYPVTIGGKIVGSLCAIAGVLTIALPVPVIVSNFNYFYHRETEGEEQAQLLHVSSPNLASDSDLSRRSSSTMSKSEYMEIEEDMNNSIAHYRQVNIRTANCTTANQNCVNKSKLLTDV

In the case of ChTx, the “proliferation of CD8+ cytotoxic effector memory T cells and secretion of granzyme B” value in series [1] was “blocked the proliferation of CD8^+ cytotoxic effector memory T cells and their secretion of granzyme B”.
On to “MgTx (TIINVKCTSPKQCLPPCKAQFGQSAGAKCMNGKCKCYPH; UniProt P40755 1-39, looked up)”, for which the “proliferation of CD8+ cytotoxic effector memory T cells and secretion of granzyme B” value in series [1] is “blocked the proliferation of CD8^+ cytotoxic effector memory T cells and their secretion of granzyme B”. For the same substance, the “differentiation of neural progenitor cells into neurons” value in series [2] is “increased the differentiation of neural progenitor cells into neurons and enhanced neuron-regeneration”.
As to ShK (from UniProt P29187), the pKd in series [3] was 10.80.

The pKd is the negative decadic logarithm of the Kd, by convention in mol/L.
